T1: extracellular domain of hIL10Rb (human, UniProt Q08334 20-220)
T1 construct: also called hIL10Rb ECD; human IL10Rb
T1 sequence: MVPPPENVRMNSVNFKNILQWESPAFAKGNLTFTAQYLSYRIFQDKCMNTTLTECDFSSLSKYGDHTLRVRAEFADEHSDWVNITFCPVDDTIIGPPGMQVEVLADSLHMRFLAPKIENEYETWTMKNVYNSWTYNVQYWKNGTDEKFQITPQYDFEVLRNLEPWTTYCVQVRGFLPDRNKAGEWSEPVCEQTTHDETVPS

T2: extracellular domain of mIL10Rb (mouse, UniProt Q61190 20-220)
T2 construct: also called mIL10Rb ECD; murine IL10Rb
T2 sequence: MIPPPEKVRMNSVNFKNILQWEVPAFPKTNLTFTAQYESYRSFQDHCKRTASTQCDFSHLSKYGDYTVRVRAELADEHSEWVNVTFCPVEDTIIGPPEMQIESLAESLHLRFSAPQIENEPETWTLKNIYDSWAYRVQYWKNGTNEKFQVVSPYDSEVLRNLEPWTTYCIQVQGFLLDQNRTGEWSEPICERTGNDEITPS


Tests used:
[1] = target: T1, extracellular domain of hIL10Rb; test: flow cytometry
[2] = target: T2, extracellular domain of mIL10Rb; test: flow cytometry, cross-reactivity

| Binder | binding result [1] | binding result [2] |
| --- | --- | --- |
| hIL10Rb_VHH-2 (VHH, anti-hIL10Rb camel VHH) VHH: QVQLQESGGGSVQAGGSLRLSCAASGYTYSSYCMGWFRQAPGKEREGVAAIDSDGSTRYADSVKGRFTISKDNAKNTLYLQMNSLKPEDTAMYYCAAEPYCSGGYKRTMVAEFGYWGQGTQVTVSS | binds |  |
| hIL10Rb_VHH-11 (VHH, anti-hIL10Rb camel VHH) VHH: QVQLQESGGGSVQAGGSLRLSCAASGYTYSSYCMGWFRQAPGKGREGVAAIDSDGSTRYADSVKGRFTISKDNAKNTLYLQMNSLKPEDTAMYYCAAEPYCSGGYKRTMVAEFGYWGQGTQVTVSS | binds |  |
| hIL10Rb_VHH-14 (VHH, anti-hIL10Rb camel VHH) VHH: QVQLQESGGGSVQAGGSLRLSCAASGYTYSSGCMGWFRQAPGKEREGVATINSDGSTNYADSVKGRFTISKDNAKNTLYLQMNSLKPEDTGMYYCAAEPYCSGGYPRWSVAEFGYWGQGTQVTVSS | binds |  |
| hIL10Rb_VHH-7 (VHH, anti-hIL10Rb camel VHH) VHH: QVQLQESGGGSVQAGGSLRLSCAASGYTYSSGCMGWFRQAPGKEREGVATINSDGSTNYADSVKGRFTISKDNAKNTLYLQMNSLKPEDTAMYYCAAEPYCSGGYPRWSVAEFGYWGQGTQVTVSS | binds |  |
| hIL10Rb_VHH-4 (VHH, anti-hIL10Rb camel VHH) VHH: QVQLQESGGGSIQAGGSLRLSCAASRYLYSIDYMAWFRQSPGKEREPVAVIYTASGATFYPDSVKGRFTISQDNAKMTVYLQMNSLKSEDTAMYYCAAVRKTDSYLFDAQSFTYWGQGTQVTVSS | binds | binds |
| hIL10Rb_VHH-26 (VHH, anti-hIL10Rb camel VHH) VHH: QVQLQESGGGSVQAGGSLRLSCAASGYSYSSYCMGWFRQAPGKEREGVATIDSDGMTRYADSVKGRFTISKDNAKNTLYLQMNSLKPEDTAMYYCAAPLYDCDSGAVGRNPPYWGQGTQVTVSS | binds | binds |
| hIL10Rb_VHH-15 (VHH, anti-hIL10Rb camel VHH) VHH: QVQLQESGGGSVQAGGSLRLSCTVSRYTASVNYMGWFRQAPGKEREGVATIFTGAGTTYYANSVKGRFTISRDNAKNTAYLQMNSLKPEDTAIYYCAVDFRGGLLYRPAYEYTYRGQGTQVTVSS | binds |  |
| hIL10Rb_VHH-27 (VHH, anti-hIL10Rb camel VHH) VHH: QVQLQESGGGSVQTGGSLRLSCAASGYTYLRGCMGWFRQAPGKEREGVAVMDVVGDRRSYIDSVKGRFTISRDNAANSVYLQMDNLKPEDTAMYYCTAGPNCVGWRSGLDYWGQGTQVTVSS | binds |  |
| hIL10Rb_VHH-12 (VHH, anti-hIL10Rb camel VHH) VHH: QVQLQESGGGSVQAGGSLRLSCAASGYTYSSYCMGWFRQAPGKEREGVAHIDSDGSTSYADSVKGRFTISKDNAKNTLYLQMNSLKPEDTAMYYCAADPIPGPGYCDGGPNKYWGQGTQVTVSS | binds | binds |
| hIL10Rb_VHH-20 (VHH, anti-hIL10Rb camel VHH) VHH: QVQLQESGGGSVQAGGSLRLSCAASGYTYSSYCMGWFRQAPGKEREGVAHIDSDGSTTYADSVKGRFAISKDNAKNTLYLQMNSLKPEDTAMYYCAADPIPGPGYCDGGPNKYWGQGTQVTVSS | binds | binds |
| hIL10Rb_VHH-19 (VHH, anti-hIL10Rb camel VHH) VHH: QVQLQESGGGSVQAGGSLRLSCAASGYTYSSYCMGWFRQAPGKEREGVAHIDSDGSTSYADSVKGRFTISKDNAKNTLYLQMNSLKPEDTAMYYCAADPIPGPGYCDGGPNKYRGQGTQVTVSS | binds | binds |
| hIL10Rb_VHH-22 (VHH, anti-hIL10Rb camel VHH) VHH: QVQLQESGGGSVQAGGSLRLSCAASGYTDSRYCMGWFRKAPGKEREGVAHIDSDGSTSYADSVKGRFTISKDNAKNTLYLQMNSLKPEDTAMYYCAADPIPGPGYCDGGPNKYWGQGTQVTVSS | binds | binds |
| hIL10Rb_VHH-10 (VHH, anti-hIL10Rb camel VHH) VHH: QVQLQESGGGLVQPGGSLRLSCAASGYTYSSYCMGWFRQAPGKEREGVAHIDSDGSTTYADSVKGRFAISKDNAKNTLYLQMNSLKPEDTAMYYCAADPIPGPGYCDGGPNKYWGQGTQVTVSS | binds | binds |

Second part, the binder after the results:

| binding result [1] | binding result [2] | Binder |
| --- | --- | --- |
| binds |  | hIL10Rb_VHH-23 (VHH, anti-hIL10Rb camel VHH) VHH: QVQLQESGGGSVQAGGSLRLSCAASGYTYSSYCMGWFRQAPGKEREGVAAIDSDGSTRYADSVKGRFTISKDNAKKILYLQMNSLKVEDTAMYYCAAEPYCSGGYKRTMVAEFGFWGQGTQVTVSS |
| binds |  | hIL10Rb_VHH-18 (VHH, anti-hIL10Rb camel VHH) VHH: QVQLQESGGGSVQAGGSLRLSCAASGDTYSSYCMGWFRQAPGKEREGVAFIDSDGSTRYADSVEGRFTISKDNAKNTLYLQMNSLKPEDTAMYYCAAEPYCSGGYHRKEMAEFGYWGQGTQVTVSS |
| binds |  | hIL10Rb_VHH-1 (VHH, anti-hIL10Rb camel VHH) VHH: QVQLQESGGGSVQAGGSLRLSCAASGYTYSSGCMGWFRQAPGKEREAVAAINSDGSTSYADSVKGRFTISKDNAKNTLYLQMNSLKPEDTAMYYCAAEPYCSGGYPRWSVAEFGYWGQGTQVTVSS |
| binds |  | hIL10Rb_VHH-8 (VHH, anti-hIL10Rb camel VHH) VHH: QVQLQESGGGSVQAGGSLRLSCAASGYSYSSYCMGWFRQAPGKEREGVAAIASDGSTSYADSVKGRFAISKDNAKNTLYLQMASLKPEDTAMYYCAAEPWCTGGYSRLTPAEYGYWGQGTQVTVSS |
| binds |  | hIL10Rb_VHH-9 (VHH, anti-hIL10Rb camel VHH) VHH: QVQLQESGGGLVQPGGSLRLSCAASGYTYSSGCMGWFRQAPGKEREGVATINSDGSTNYADSVKGRFTISKDNAKNTLYLQMNSLKPEDTAMYYCAAEPYCSGGYPRWSVAEFGYWGQGTQVTVSS |
| binds | binds | hIL10Rb_VHH-6 (VHH, anti-hIL10Rb camel VHH) VHH: QVQLQESGGGSIQAGGSLTLSCAASRDLYSTNYVAWFRQSPGKEREAVAVIYTASGATLYSDSVKGRFTISQDNAKMTVYLQMNSLKSEDTAMYYCAAVRKTGHYLFDAQSFTYWGQGTQVTVSS |
| binds |  | hIL10Rb_VHH-17 (VHH, anti-hIL10Rb camel VHH) VHH: QVQLQESGGGSVQAGGSLRLSCTVSRYTASVNYMGWFRQAPGKEREGVATIFTGAGTTYYANSVKGRFTISRDNAKNTAYLQMNSLKPEDTAMYYCAVDFRGGLLYRPAYEYTYRGQGTQVTVSS |
| binds | binds | hIL10Rb_VHH-25 (VHH, anti-hIL10Rb camel VHH) VHH: QVQLQESGGGSVQAGGSLRLSCAASGYTYSSYCMGWFRQAPGKEREGIAHIDSDGSTTYADSVKGRFTISKDNAKNTLYLQMNSLKPEDTAMYYCAADPIPGPGYCDGGPNNYWGQGTQVTVSS |
| binds | binds | hIL10Rb_VHH-13 (VHH, anti-hIL10Rb camel VHH) VHH: QVQLQESGGGSVQAGGSLRLSCAASGYTYSSYCMGWFRQAPGKEREGVAHIDSDGSTSYADSVKGRFTISKDNAKNTLYLQMNSLKPEDTAMYYCAADPIPGPGYCDGGPNNYWGQGTQVTVSS |
| binds | binds | hIL10Rb_VHH-24 (VHH, anti-hIL10Rb camel VHH) VHH: QVQLQESGGGSVQAGGSLKLSCAASGYTYSSYCMGWFRQAPGKEREGVAHIDSDGSTTYADSVKGRFTISKDNAKNTLYLQMNSLKPEDTAMYYCAADPIPGPGYCDGGPNNYWGQGTQVTVSS |
| binds |  | hIL10Rb_VHH-5 (VHH, anti-hIL10Rb camel VHH) VHH: QVQLQESGGGLVQPGGSLRLSCAASGYTYSSYCMGWFRQAPGKEREGVAHIDSDGSTTYADSVKGRFTISKDNAKNTLYLQMNSLKPEDTAMYYCAADPIPGPGYCDGGPNKYWGQGTQVTVSS |
| binds | binds | hIL10Rb_VHH-3 (VHH, anti-hIL10Rb camel VHH) VHH: QVQLQESGGGSVQAGGSLRLSCAASRYTYNSYCMGWFRQAPGKEREGVATIDSDGMTRYADSVKGRFTISKDNAKNTLYLQMNSLKPEDTAMYYCAADADCTIAAMTTNPLGQGTQVTVSS |
| binds | binds | hIL10Rb_VHH-16 (VHH, anti-hIL10Rb camel VHH) VHH: QVQLQESGGGSVEAGGSLRLSCAASGYTHSSYCMGWFRQAPGKEREGVAAIDVDGSTTYADSVKGRFTISKDNAKNTLYLQMNSLKPEDTGMYYCAAEFADCSSNYFLPPGAVRYWGQGTQVTVSS |

— US20230391891A1 (SYNTHEKINE, published 2023)
